In test [1] the target is human tACEΔ36-g13sol (C-domain of angiotensin-I-converting enzyme) (human).
The target of test [2] is human C-domain ACE (tACEΔ36-g13sol) R522K (human).
The target of test [3] is human C-domain ACE (tACEΔ36-g13sol) R522Q (human).
In test [4] the target is human C-domain ACE (tACEΔ36-g13sol) R186H (human).

DRVYIHPFHL [Angiotensin I (Asp-Arg-Val-Tyr-Ile-His-Pro-Phe-His-Leu)]: the Km of angiotensin I cleavage, ITC kinetic assay (progress curve), 37 °C, 0 mM NaCl, 50 mM TAPSO pH 7.5, 10 μM ZnSO4 stood at 0.049 mM in test [1], 0.13 mM in test [2], 0.092 mM in test [3] and 0.085 mM in test [4]. Also, the Km of angiotensin I cleavage, ITC kinetic assay (progress curve), 37 °C, 20 mM NaCl, 50 mM TAPSO pH 7.5, 10 μM ZnSO4 turned out to be 0.036 mM in test [1], 0.119 mM in test [2], 0.077 mM in test [3] and 0.095 mM in test [4].

The values are drawn from PMC3894356.
